Experiments:
[1] = molecular target: PTK labeled tracer F-ADE(pY)LIPQQS; assay: fluorescence polarization, direct binding curve: labeled antibody 10 nM to 9.8 pM against 1 nM tracer
[2] = molecular target: PTK labeled tracer F-ADE(pY)LIPQQS; assay: binding curves as in Example 2 (FP), antibody at several labeling ratios

EC50 [1] [nM]	fold variation of affinity for the tracer upon labeling [2] [fold]	Substance
1		Tb-chelate labeled PY72 (anti-phosphotyrosine) IgG antibody
	< 2	Anti p-Tyr antibody (anti-pY20) labeled with CS124-DTPA-Phe-NCS*Tb
